Numbering of substitutions follows the chain as printed. Names may count otherwise. “And” between values parts separate entries of the source, which are not always exact repeats. Identical values can stand only once.
T1: DegP^S210A/Y444A (Escherichia coli), P0C0V0
T1 chain: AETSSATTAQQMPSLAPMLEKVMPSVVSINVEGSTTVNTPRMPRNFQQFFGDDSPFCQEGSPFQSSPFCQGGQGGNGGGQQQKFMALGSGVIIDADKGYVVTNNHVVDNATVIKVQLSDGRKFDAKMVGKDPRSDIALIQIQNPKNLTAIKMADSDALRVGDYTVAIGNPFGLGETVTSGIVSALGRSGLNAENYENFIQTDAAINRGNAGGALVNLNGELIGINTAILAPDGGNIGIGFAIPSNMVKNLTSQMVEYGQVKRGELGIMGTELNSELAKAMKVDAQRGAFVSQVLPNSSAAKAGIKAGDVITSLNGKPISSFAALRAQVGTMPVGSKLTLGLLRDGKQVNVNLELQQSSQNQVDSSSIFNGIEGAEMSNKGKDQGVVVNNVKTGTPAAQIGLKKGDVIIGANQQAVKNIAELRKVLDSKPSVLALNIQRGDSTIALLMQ

B1: 18-58 polypeptide (lysozyme residues 18-58 with the cysteines mutated to serines) (peptide, UniProt P00698 36-76, looked up)
peptide: DNYRGYSLGNWVSAAKFESNFNTQATNRNTDGSTDYGILQI
B2: DegP^S210A/Y444A, P0C0V0 27-474 (enzyme)
chain: T1 chain
B3: DegP^S210A active-site mutant (enzyme, Escherichia coli, UniProt P0C0V0 27-474, looked up)
chain: T1 chain with A444Y

Columns and labels:
DegP = DegP (Escherichia coli, UniProt P0C0V0); format: biochemical; details: reporter 100 μM; no activator; 23 °C, 50 mM sodium phosphate pH 8, 100 mM NaCl
[1] = target: B3; experiment: crystal structure
[2] = target: T1, DegP^S210A/Y444A (Escherichia coli), …; experiment: SEC; details: remark: other sources report otherwise
[3] = target: T1, DegP^S210A/Y444A (Escherichia coli), …; experiment: SEC; details: remark: other sources report otherwise
SEC = target: the molecule itself; experiment: SEC
AUC = target: the molecule itself; experiment: AUC

Sequence of DegP (P0C0V0 27-474): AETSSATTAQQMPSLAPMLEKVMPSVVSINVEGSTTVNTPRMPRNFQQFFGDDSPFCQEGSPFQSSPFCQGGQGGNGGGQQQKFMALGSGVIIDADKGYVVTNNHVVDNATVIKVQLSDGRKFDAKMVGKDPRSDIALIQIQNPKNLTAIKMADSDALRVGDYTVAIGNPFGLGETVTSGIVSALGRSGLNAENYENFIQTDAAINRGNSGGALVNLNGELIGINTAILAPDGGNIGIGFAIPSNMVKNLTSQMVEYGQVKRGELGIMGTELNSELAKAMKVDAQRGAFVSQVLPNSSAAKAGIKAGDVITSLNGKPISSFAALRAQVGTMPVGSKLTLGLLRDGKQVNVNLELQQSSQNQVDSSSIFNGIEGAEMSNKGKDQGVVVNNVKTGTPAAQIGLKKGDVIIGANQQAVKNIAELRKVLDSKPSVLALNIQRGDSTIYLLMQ

Abz-KASPVSLGY^NO2D [reporter peptide] was tested, and the “rate of reporter peptide cleavage by DegP alone” value (DegP) was 0.027 min^−1 DegP^−1.

B1: binds [1].

B2 gave a stoichiometry N [2] of 6 and a stoichiometry N [3] of 6.

With B3 the “stoichiometry N” value (SEC) was 6 and the “stoichiometry N” value (AUC) was 18 and 24 and 30.
